Biological target: T1, recombinant human α5β1 integrin (rh-α5β1) (Homo sapiens, UniProt P05556+P08648)
T1 construct: purchased R&D Systems 3230-A5
Assay: Plate-based ELISA reactivity to rh-α5β1
Assay type: binding
Conditions: selected for further characterization among α5 specific hybridomas (28 selected)
Method in brief: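 Hybridoma supernatants, diluted 1:10, incubated 1 h at RT on wells coated with rh-α5β1 at 1 μg/mL in PBS with 0.5 mM MgCl2, MnCl2, CaCl2 and blocked with 2% BSA. Detection via biotinylated goat anti-mouse, poly-HRP streptavidin and TMB; absorbance 450 nm.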

T1 sequence (P08648 42-894 limits assumed): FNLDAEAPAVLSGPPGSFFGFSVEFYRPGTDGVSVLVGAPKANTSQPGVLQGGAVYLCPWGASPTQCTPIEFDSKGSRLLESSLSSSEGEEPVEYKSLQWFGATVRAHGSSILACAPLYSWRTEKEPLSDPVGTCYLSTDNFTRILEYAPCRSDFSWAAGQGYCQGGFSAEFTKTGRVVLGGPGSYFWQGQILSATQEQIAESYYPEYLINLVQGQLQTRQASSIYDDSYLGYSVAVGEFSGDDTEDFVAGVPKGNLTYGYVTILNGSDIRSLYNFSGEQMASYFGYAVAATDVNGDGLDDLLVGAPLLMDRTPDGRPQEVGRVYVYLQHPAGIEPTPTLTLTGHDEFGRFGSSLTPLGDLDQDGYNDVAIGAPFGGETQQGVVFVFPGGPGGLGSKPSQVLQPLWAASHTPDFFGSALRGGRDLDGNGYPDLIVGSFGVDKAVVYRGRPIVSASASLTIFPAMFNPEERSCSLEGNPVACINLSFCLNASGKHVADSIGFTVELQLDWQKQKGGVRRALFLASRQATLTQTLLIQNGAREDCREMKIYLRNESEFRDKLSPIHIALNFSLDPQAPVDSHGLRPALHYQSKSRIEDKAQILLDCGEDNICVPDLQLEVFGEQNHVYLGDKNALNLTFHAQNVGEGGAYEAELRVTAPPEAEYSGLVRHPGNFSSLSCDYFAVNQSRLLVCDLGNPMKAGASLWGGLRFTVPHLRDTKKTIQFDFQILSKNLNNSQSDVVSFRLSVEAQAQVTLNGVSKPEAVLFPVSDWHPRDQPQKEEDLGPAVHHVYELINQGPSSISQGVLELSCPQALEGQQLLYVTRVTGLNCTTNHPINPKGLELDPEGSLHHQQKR
T1 sequence (P08648 895-995 limits assumed): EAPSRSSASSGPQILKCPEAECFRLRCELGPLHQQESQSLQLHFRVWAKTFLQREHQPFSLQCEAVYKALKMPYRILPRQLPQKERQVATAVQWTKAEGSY
T1 sequence (P05556 21-728 limits assumed): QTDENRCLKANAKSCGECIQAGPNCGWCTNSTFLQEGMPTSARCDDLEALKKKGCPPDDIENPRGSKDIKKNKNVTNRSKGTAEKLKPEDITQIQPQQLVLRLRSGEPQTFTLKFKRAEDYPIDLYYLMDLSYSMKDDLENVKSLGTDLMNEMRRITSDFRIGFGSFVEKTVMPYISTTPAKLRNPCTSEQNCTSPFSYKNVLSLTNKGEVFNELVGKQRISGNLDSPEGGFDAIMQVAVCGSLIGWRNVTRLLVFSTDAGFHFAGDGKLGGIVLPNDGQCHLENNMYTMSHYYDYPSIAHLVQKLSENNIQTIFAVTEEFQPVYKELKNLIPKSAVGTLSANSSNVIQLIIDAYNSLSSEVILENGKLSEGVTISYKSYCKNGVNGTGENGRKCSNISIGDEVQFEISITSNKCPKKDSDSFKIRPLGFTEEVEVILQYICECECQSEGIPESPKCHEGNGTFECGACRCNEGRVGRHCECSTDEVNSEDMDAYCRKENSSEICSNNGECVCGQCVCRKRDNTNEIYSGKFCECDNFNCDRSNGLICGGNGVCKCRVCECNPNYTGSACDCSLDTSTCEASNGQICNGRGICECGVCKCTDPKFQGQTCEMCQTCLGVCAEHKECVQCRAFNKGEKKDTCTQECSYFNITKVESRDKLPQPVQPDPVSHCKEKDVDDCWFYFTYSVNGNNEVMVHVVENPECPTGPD

Selected Human α5 Specific: Yes
B1: A2-7A05: anti-α5β1 antibody, VH SEQ ID NO:77, VL SEQ ID NO:78; tested as mouse hybridoma antibody and as human IgG4 chimera (antibody, V domains shown)
VH: QVQLQQPGAELVKPGASVKLSCKASGYTFTIYWINWVKQRPGQGLEWIGKIYPGSISTDYNEKFKSKATLTVDTSSSTAYMQLSSLTSDDSAVYYCAITGTGGLAYWGQGTLVTVSA
VL: ENVLTQSPAIMSASLGEKVTMTCRASSSVNYMYWYQQKSDASPKLWIYFTSSLAPGVPGRFSGSGSGNSYSLTISTMEGEDAATYYCQQFTTSPFTFGSGTKLEIK
modifications: A2-7A05 VH Sequence; A2-7A05 VL Sequence
notes: tested as mouse hybridoma antibody and as human IgG4 chimera
